Measured values published in US20240270846A1 (published 2024).

biological target: T1, CD3 epsilon homodimer protein (UniProt P07766 23-126); experiment: SPR Biacore T200, CD3 epsilon homodimer on chip, antibody as analyte;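 note: homodimer amine-coupled to a CM4 sensor chip, run at 25 °C in HBS-EP+ buffer, with kinetic parameters derived in Biacore T200 Evaluation Software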
T1 construct: also called CD3 (CD3 epsilon)
T1 sequence (P07766 23-126): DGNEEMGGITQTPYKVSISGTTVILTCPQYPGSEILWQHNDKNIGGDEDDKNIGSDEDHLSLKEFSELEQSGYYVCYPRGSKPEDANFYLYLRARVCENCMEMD

KD ratio (KD of CE115HA000 / KD of altered form) | Binder
1.35 | CE115HA000 H chain altered form A52aD (antibody, human IgG1, kappa, L234A L235A, N297A, name in Kabat numbering, one-arm antibody) heavy: QVQLVESGGGVVQPGRSLRLSCAASGFTFSNAWMHWVRQAPGKGLEWVAQIKDKSNNYATYYAESVKGRFTISRDDSKNSLYLQMNSLKTEDTAVYYCRYVHYGAYYGVDAWGQGTTVTVSSASTKGPSVFPLAPSSKSTSGGTAALGCLVKDYFPEPVTVSWNSGALTSGVHTFPAVLQSSGLYSLSSVVTVPSSSLGTQTYICNVNHKPSNTKVDKKVEPKSCDKTHTCPPCPAPEAAGGPSVFLFPPKPKDTLMISRTPEVTCVVVDVSHEDPEVKFNWYVDGVEVHNAKTKPREEQYASTYRVVSVLTVLHQDWLNGKEYKCKVSNKALPAPIEKTISKAKGQPREPQVYTLPPSRCELTKNQVSLSCAVKGFYPSDIAVEWESNGQPENNYKTTPPVLDSDGSFFLVSKLTVDKSRWQQGNVFSCSVMHEALHNHYTQKSLSLSPDYKDDDDK EPKSSDKTHTCPPCPAPELLGGPSVFLFPPKPKDTLMISRTPEVTCVVVDVSHEDPEVKFNWYVDGVEVHNAKTKPREEQYNSTYRVVSVLTVLHQDWLNGKEYKCKVSNKALPAPIEKTISKAKGQPREPQVCTLPPSRDELTKNQVSLWCLVKGFYPSDIAVEWESNGQPENNYKTTPPVLDSDGSFFLYSKLTVDKSRWQQGNVFSCSVMHEALHNRYTQKSLSLSP light: DIVMTQSPLSLPVTPGEPASISCRSSQSLVHSNRNTYLHWYQQKPGQAPRLLIYKVSNRFSGVPDRFSGSGSGTDFTLKISRVEAEDVGVYYCGQGTQVPYTFGQGTKLEIKRTVAAPSVFIFPPSDEQLKSGTASVVCLLNNFYPREAKVQWKVDNALQSGNSQESVTEQDSKDSTYSLSSTLTLSKADYEKHKVYACEVTHQGLSSPVTKSFNRGEC
0.89 | CE115HA000 H chain altered form A52aE (antibody, human IgG1, kappa, L234A L235A, N297A, name in Kabat numbering, one-arm antibody) heavy: QVQLVESGGGVVQPGRSLRLSCAASGFTFSNAWMHWVRQAPGKGLEWVAQIKEKSNNYATYYAESVKGRFTISRDDSKNSLYLQMNSLKTEDTAVYYCRYVHYGAYYGVDAWGQGTTVTVSSASTKGPSVFPLAPSSKSTSGGTAALGCLVKDYFPEPVTVSWNSGALTSGVHTFPAVLQSSGLYSLSSVVTVPSSSLGTQTYICNVNHKPSNTKVDKKVEPKSCDKTHTCPPCPAPEAAGGPSVFLFPPKPKDTLMISRTPEVTCVVVDVSHEDPEVKFNWYVDGVEVHNAKTKPREEQYASTYRVVSVLTVLHQDWLNGKEYKCKVSNKALPAPIEKTISKAKGQPREPQVYTLPPSRCELTKNQVSLSCAVKGFYPSDIAVEWESNGQPENNYKTTPPVLDSDGSFFLVSKLTVDKSRWQQGNVFSCSVMHEALHNHYTQKSLSLSPDYKDDDDK EPKSSDKTHTCPPCPAPELLGGPSVFLFPPKPKDTLMISRTPEVTCVVVDVSHEDPEVKFNWYVDGVEVHNAKTKPREEQYNSTYRVVSVLTVLHQDWLNGKEYKCKVSNKALPAPIEKTISKAKGQPREPQVCTLPPSRDELTKNQVSLWCLVKGFYPSDIAVEWESNGQPENNYKTTPPVLDSDGSFFLYSKLTVDKSRWQQGNVFSCSVMHEALHNRYTQKSLSLSP light: DIVMTQSPLSLPVTPGEPASISCRSSQSLVHSNRNTYLHWYQQKPGQAPRLLIYKVSNRFSGVPDRFSGSGSGTDFTLKISRVEAEDVGVYYCGQGTQVPYTFGQGTKLEIKRTVAAPSVFIFPPSDEQLKSGTASVVCLLNNFYPREAKVQWKVDNALQSGNSQESVTEQDSKDSTYSLSSTLTLSKADYEKHKVYACEVTHQGLSSPVTKSFNRGEC
0.61 | CE115HA000 H chain altered form A52aG (antibody, human IgG1, kappa, L234A L235A, N297A, name in Kabat numbering, one-arm antibody) heavy: QVQLVESGGGVVQPGRSLRLSCAASGFTFSNAWMHWVRQAPGKGLEWVAQIKGKSNNYATYYAESVKGRFTISRDDSKNSLYLQMNSLKTEDTAVYYCRYVHYGAYYGVDAWGQGTTVTVSSASTKGPSVFPLAPSSKSTSGGTAALGCLVKDYFPEPVTVSWNSGALTSGVHTFPAVLQSSGLYSLSSVVTVPSSSLGTQTYICNVNHKPSNTKVDKKVEPKSCDKTHTCPPCPAPEAAGGPSVFLFPPKPKDTLMISRTPEVTCVVVDVSHEDPEVKFNWYVDGVEVHNAKTKPREEQYASTYRVVSVLTVLHQDWLNGKEYKCKVSNKALPAPIEKTISKAKGQPREPQVYTLPPSRCELTKNQVSLSCAVKGFYPSDIAVEWESNGQPENNYKTTPPVLDSDGSFFLVSKLTVDKSRWQQGNVFSCSVMHEALHNHYTQKSLSLSPDYKDDDDK EPKSSDKTHTCPPCPAPELLGGPSVFLFPPKPKDTLMISRTPEVTCVVVDVSHEDPEVKFNWYVDGVEVHNAKTKPREEQYNSTYRVVSVLTVLHQDWLNGKEYKCKVSNKALPAPIEKTISKAKGQPREPQVCTLPPSRDELTKNQVSLWCLVKGFYPSDIAVEWESNGQPENNYKTTPPVLDSDGSFFLYSKLTVDKSRWQQGNVFSCSVMHEALHNRYTQKSLSLSP light: DIVMTQSPLSLPVTPGEPASISCRSSQSLVHSNRNTYLHWYQQKPGQAPRLLIYKVSNRFSGVPDRFSGSGSGTDFTLKISRVEAEDVGVYYCGQGTQVPYTFGQGTKLEIKRTVAAPSVFIFPPSDEQLKSGTASVVCLLNNFYPREAKVQWKVDNALQSGNSQESVTEQDSKDSTYSLSSTLTLSKADYEKHKVYACEVTHQGLSSPVTKSFNRGEC
5 | CE115HA000 H chain altered form A52aP (antibody, human IgG1, kappa, L234A L235A, N297A, name in Kabat numbering, one-arm antibody) heavy: QVQLVESGGGVVQPGRSLRLSCAASGFTFSNAWMHWVRQAPGKGLEWVAQIKPKSNNYATYYAESVKGRFTISRDDSKNSLYLQMNSLKTEDTAVYYCRYVHYGAYYGVDAWGQGTTVTVSSASTKGPSVFPLAPSSKSTSGGTAALGCLVKDYFPEPVTVSWNSGALTSGVHTFPAVLQSSGLYSLSSVVTVPSSSLGTQTYICNVNHKPSNTKVDKKVEPKSCDKTHTCPPCPAPEAAGGPSVFLFPPKPKDTLMISRTPEVTCVVVDVSHEDPEVKFNWYVDGVEVHNAKTKPREEQYASTYRVVSVLTVLHQDWLNGKEYKCKVSNKALPAPIEKTISKAKGQPREPQVYTLPPSRCELTKNQVSLSCAVKGFYPSDIAVEWESNGQPENNYKTTPPVLDSDGSFFLVSKLTVDKSRWQQGNVFSCSVMHEALHNHYTQKSLSLSPDYKDDDDK EPKSSDKTHTCPPCPAPELLGGPSVFLFPPKPKDTLMISRTPEVTCVVVDVSHEDPEVKFNWYVDGVEVHNAKTKPREEQYNSTYRVVSVLTVLHQDWLNGKEYKCKVSNKALPAPIEKTISKAKGQPREPQVCTLPPSRDELTKNQVSLWCLVKGFYPSDIAVEWESNGQPENNYKTTPPVLDSDGSFFLYSKLTVDKSRWQQGNVFSCSVMHEALHNRYTQKSLSLSP light: DIVMTQSPLSLPVTPGEPASISCRSSQSLVHSNRNTYLHWYQQKPGQAPRLLIYKVSNRFSGVPDRFSGSGSGTDFTLKISRVEAEDVGVYYCGQGTQVPYTFGQGTKLEIKRTVAAPSVFIFPPSDEQLKSGTASVVCLLNNFYPREAKVQWKVDNALQSGNSQESVTEQDSKDSTYSLSSTLTLSKADYEKHKVYACEVTHQGLSSPVTKSFNRGEC
